Results: IntAct's records for PubMed 21471202

B1: Low-density lipoprotein receptor-related protein 4 (Homo sapiens), O75096 (parent)
chain: MRRQWGALLLGALLCAHGLASSPECACGRSHFTCAVSALGECTCIPAQWQCDGDNDCGDHSDEDGCILPTCSPLDFHCDNGKCIRRSWVCDGDNDCEDDSDEQDCPPRECEEDEFPCQNGYCIRSLWHCDGDNDCGDNSDEQCDMRKCSDKEFRCSDGSCIAEHWYCDGDTDCKDGSDEENCPSAVPAPPCNLEEFQCAYGRCILDIYHCDGDDDCGDWSDESDCSSHQPCRSGEFMCDSGLCINAGWRCDGDADCDDQSDERNCTTSMCTAEQFRCHSGRCVRLSWRCDGEDDCADNSDEENCENTGSPQCALDQFLCWNGRCIGQRKLCNGVNDCGDNSDESPQQNCRPRTGEENCNVNNGGCAQKCQMVRGAVQCTCHTGYRLTEDGHTCQDVNECAEEGYCSQGCTNSEGAFQCWCETGYELRPDRRSCKALGPEPVLLFANRIDIRQVLPHRSEYTLLLNNLENAIALDFHHRRELVFWSDVTLDRILRANLNGSNVEEVVSTGLESPGGLAVDWVHDKLYWTDSGTSRIEVANLDGAHRKVLLWQNLEKPRAIALHPMEGTIYWTDWGNTPRIEASSMDGSGRRIIADTHLFWPNGLTIDYAGRRMYWVDAKHHVIERANLDGSHRKAVISQGLPHPFAITVFEDSLYWTDWHTKSINSANKFTGKNQEIIRNKLHFPMDIHTLHPQRQPAGKNRCGDNNGGCTHLCLPSGQNYTCACPTGFRKISSHACAQSLDKFLLFARRMDIRRISFDTEDLSDDVIPLADVRSAVALDWDSRDDHVYWTDVSTDTISRAKWDGTGQEVVVDTSLESPAGLAIDWVTNKLYWTDAGTDRIEVANTDGSMRTVLIWENLDRPRDIVVEPMGGYMYWTDWGASPKIERAGMDASGRQVIISSNLTWPNGLAIDYGSQRLYWADAGMKTIEFAGLDGSKRKVLIGSQLPHPFGLTLYGERIYWTDWQTKSIQSADRLTGLDRETLQENLENLMDIHVFHRRRPPVSTPCAMENGGCSHLCLRSPNPSGFSCTCPTGINLLSDGKTCSPGMNSFLIFARRIDIRMVSLDIPYFADVVVPINITMKNTIAIGVDPQEGKVYWSDSTLHRISRANLDGSQHEDIITTGLQTTDGLAVDAIGRKVYWTDTGTNRIEVGNLDGSMRKVLVWQNLDSPRAIVLYHEMGFMYWTDWGENAKLERSGMDGSDRAVLINNNLGWPNGLTVDKASSQLLWADAHTERIEAADLNGANRHTLVSPVQHPYGLTLLDSYIYWTDWQTRSIHRADKGTGSNVILVRSNLPGLMDMQAVDRAQPLGFNKCGSRNGGCSHLCLPRPSGFSCACPTGIQLKGDGKTCDPSPETYLLFSSRGSIRRISLDTSDHTDVHVPVPELNNVISLDYDSVDGKVYYTDVFLDVIRRADLNGSNMETVIGRGLKTTDGLAVDWVARNLYWTDTGRNTIEASRLDGSCRKVLINNSLDEPRAIAVFPRKGYLFWTDWGHIAKIERANLDGSERKVLINTDLGWPNGLTLDYDTRRIYWVDAHLDRIESADLNGKLRQVLVSHVSHPFALTQQDRWIYWTDWQTKSIQRVDKYSGRNKETVLANVEGLMDIIVVSPQRQTGTNACGVNNGGCTHLCFARASDFVCACPDEPDSRPCSLVPGLVPPAPRATGMSEKSPVLPNTPPTTLYSSTTRTRTSLEEVEGRCSERDARLGLCARSNDAVPAAPGEGLHISYAIGGLLSILLILVVIAALMLYRHKKSKFTDPGMGNLTYSNPSYRTSTQEVKIEAIPKPAMYNQLCYKKEGGPDHNYTKEKIKIVEGICLLSGDDAEWDDLKQLRSSRGGLLRDHVCMKTDTVSIQASSGSLDDTETEQLLQEEQSECSSVHTAATPERRGSLPDTGWKHERKLSSESQV

Variants of: B1
Settings: with sost_human SOST

| effect of a mutation on the interaction | Variant |
| --- | --- |
| decreasing interaction | R1170W |
| decreasing interaction | W1186S |
